Source: patent publication US20250066456A1 (NOVAVAX, published 2025)
Where two headings read alike, the source gives them in different places.

Tests used:
[1] = molecular target: T1, BV2509 (recombinant CoV S glycoprotein, BA.1) (SARS-CoV-2, UniProt P0DTC2 14-1273); assay: ELISA on coated rS
[2] = molecular target: T2, BV2541 (recombinant CoV S glycoprotein, BA.4) (SARS-CoV-2, UniProt P0DTC2 14-1273); assay: ELISA on coated rS
[3] = molecular target: BV2561 (recombinant CoV S glycoprotein, BA.2.75) (SARS-CoV-2, UniProt P0DTC2 14-1273); assay: ELISA on coated rS
[4] = molecular target: T3, BV2562 (recombinant CoV S glycoprotein, BA.4.6) (SARS-CoV-2, UniProt P0DTC2 14-1273); assay: ELISA on coated rS
[5] = molecular target: T4, BV2589 (recombinant CoV S glycoprotein, BQ.1.1) (SARS-CoV-2, UniProt P0DTC2 14-1273); assay: ELISA on coated rS
[6] = molecular target: T4, BV2589 (recombinant CoV S glycoprotein, …); assay: BLI, antibody on anti-mouse Fc biosensor, rS analyte
[7] = molecular target: T5, BV2425 (recombinant CoV S glycoprotein, Alpha) (SARS-CoV-2, UniProt P0DTC2 14-1273); assay: ELISA, plate coated with rS, serial dilution of the mAb, anti-mouse HRP, A450
[8] = molecular target: T6, BV2438 (recombinant CoV S glycoprotein, Beta) (SARS-CoV-2, UniProt P0DTC2 14-1273); assay: as above
[9] = molecular target: T7, BV2465 (recombinant CoV S glycoprotein, Delta) (SARS-CoV-2, UniProt P0DTC2 14-1273); assay: as above
[10] = molecular target: T8, BV2443 (recombinant CoV S glycoprotein, Gamma) (SARS-CoV-2, UniProt P0DTC2 14-1273)
[11] = molecular target: T9, BV2373 (recombinant CoV S glycoprotein, Prototype) (SARS-CoV-2, UniProt P0DTC2 14-1273); assay: hACE2 receptor inhibition ELISA on coated rS; competitor hACE2-His
[12] = molecular target: T5, BV2425 (recombinant CoV S glycoprotein, …); assay: as above
[13] = molecular target: T6, BV2438 (recombinant CoV S glycoprotein, …); assay: as above
[14] = molecular target: T8, BV2443 (recombinant CoV S glycoprotein, …); assay: as above
[15] = molecular target: T7, BV2465 (recombinant CoV S glycoprotein, …); assay: as above
[16] = molecular target: T1, BV2509 (recombinant CoV S glycoprotein, …); assay: as above
[17] = molecular target: T2, BV2541 (recombinant CoV S glycoprotein, …)
[18] = molecular target: T3, BV2562 (recombinant CoV S glycoprotein, …)
[19] = molecular target: T9, BV2373 (recombinant CoV S glycoprotein, …); assay: ELISA on coated rS
[20] = molecular target: T5, BV2425 (recombinant CoV S glycoprotein, …); assay: ELISA on coated rS
[21] = molecular target: T6, BV2438 (recombinant CoV S glycoprotein, …); assay: ELISA on coated rS
[22] = molecular target: T8, BV2443 (recombinant CoV S glycoprotein, …); assay: ELISA on coated rS
[23] = molecular target: T7, BV2465 (recombinant CoV S glycoprotein, …); assay: ELISA on coated rS
[24] = molecular target: T1, BV2509 (recombinant CoV S glycoprotein, …); assay: ELISA on coated rS; remark: listed apart in the source
[25] = molecular target: T10, Delta Plus CoV S glycoprotein (recombinant) (Severe acute respiratory syndrome …, UniProt P0DTC2 14-1273); assay: ELISA on coated rS
[26] = molecular target: T10, Delta Plus CoV S glycoprotein …; assay: hACE2 receptor inhibition ELISA on coated rS; competitor hACE2-His

Binder	EC50 [1] [µg/mL]	EC50 [2] [µg/mL]	EC50 [3] [µg/mL]	EC50 [4] [µg/mL]	Kd [6] [pM]	IC50 [11] [µg/mL]	IC50 [12] [µg/mL]	IC50 [13] [µg/mL]	IC50 [14] [µg/mL]	IC50 [15] [µg/mL]	IC50 [16] [µg/mL]	other results
322.3 (antibody, V domains shown) VH: RVQLQQSGPELVKPGASVTISCKASGYIFTSDYIHWVKQRPGQGPEWIGWIYPGNINTKYNEKFKGKATLTADKSSSTAYMQLSSLTSEDSAVYFCARDDGNLYYYAMDYWGQGTSVTVSS VL: NIVLTQSPASLAVSLGQRATISCRASESVDSYGSSFMHWYQQKPGQPPKLLIYLASNLESGVPARFSGSGSRTDFTLTIDPVEADDAATYYCQQNNEDPRTFGGGTKLEIK	0.197	0.082	0.144	0.117	1.63							EC50 [5]: 0.077 µg/mL; EC50 [7]: 0.085 µg/mL; EC50 [8]: 0.084 µg/mL; EC50 [9]: 0.082 µg/mL
425.6 (antibody, V domains shown) VH: VQLKQSGPSLVQPSQSLSITCTVSGFSLTSYGIHWVRQSPGKGLEWLGVIWRGGSTDYNAAFMSRLTITKDNSKSQVFFKMNSLQADDTAIYYCATHTEGDDVDYWGQGTSVTVSS VL: QIVLTQSPAIMSVSPGEKVTMTCSASSTMSFMYWYQQKPGSSPRLLIYDTSNLASGVPVRFSGSGSGTSYSLTISRVEAEDAATYYCQQWNTYPLTFGAGTKLELKR		0.016		0.021		0.064	0.1	0.048	0.048	0.069	> 3	Kd (BV2457 (rS India)): < 1 pM; koff (BV2457 (rS India)): 1.88e-07 s⁻¹; kon (BV2457 (rS India)): 117000 M⁻¹ s⁻¹; Kd [10]: 3.52 pM
35.13 (antibody, V domains shown) VH: QVQLQQSGAELGKPGASVKLSCRASGYTFTRYYIYWVKQRPGQGLEWIGEINPSNGDTHFNEKFKTKATLTVDKSSSSAHIHLTSLTSEDSAVYYCSIHAYSFDFWGQGTTLTVSS VL: EIQMTQSPSSMSASLGDRITITCQATQDIVKNLNWYQQKPGKPPSFLIYHATELAKGVPSRFSGSGSGSDYSLTISNLESEDFADYYCLQFYDFPFTFGAGTKLELKR	0.038		0.048		< 1	0.074	0.142	0.922	0.07	0.098	0.102	IC50 [17]: > 3 µg/mL; IC50 [18]: > 3 µg/mL; EC50 [19]: 0.007 µg/mL; EC50 [20]: 0.011 µg/mL; EC50 [21]: 0.119 µg/mL; EC50 [22]: 0.012 µg/mL; EC50 [23]: 0.01 µg/mL; EC50 [24]: 0.05 µg/mL; EC50 [25]: 0.011 µg/mL; koff [6]: < 1e-07 s⁻¹; kon [6]: 26900 M⁻¹ s⁻¹; IC50 [26]: 0.065 µg/mL
